Consider 7 molecules from US20180155406A1 (Sanofi, published 2018).

Numbered stars: 1 amine (or outer) side, 2 acyl side, 3 side chain; on linkers, the order of the positions; unused ones are H or OH. Square brackets hold non-standard residues; d marks the D form. Side chains are listed from the residue outwards. Ends that are not written are not given here. * marks the point of attachment. γGlu = O=C(O)[C@H](CCC(=O)[*:2])N[*:1]; Palmitoyl = CCCCCCCCCCCCCCCC(=O)*; Aib = CC(C)(N)C(=O)O

Test in all cases: cell-based or functional assay
One test addresses human GLP-1 receptor (human, UniProt P43220 24-463).
The next test concerns the target human glucagon receptor (human, UniProt P47871 26-477).
Another test deals with T1, human GIP receptor (human, UniProt P48546 22-466).
T1 sequence (looked up): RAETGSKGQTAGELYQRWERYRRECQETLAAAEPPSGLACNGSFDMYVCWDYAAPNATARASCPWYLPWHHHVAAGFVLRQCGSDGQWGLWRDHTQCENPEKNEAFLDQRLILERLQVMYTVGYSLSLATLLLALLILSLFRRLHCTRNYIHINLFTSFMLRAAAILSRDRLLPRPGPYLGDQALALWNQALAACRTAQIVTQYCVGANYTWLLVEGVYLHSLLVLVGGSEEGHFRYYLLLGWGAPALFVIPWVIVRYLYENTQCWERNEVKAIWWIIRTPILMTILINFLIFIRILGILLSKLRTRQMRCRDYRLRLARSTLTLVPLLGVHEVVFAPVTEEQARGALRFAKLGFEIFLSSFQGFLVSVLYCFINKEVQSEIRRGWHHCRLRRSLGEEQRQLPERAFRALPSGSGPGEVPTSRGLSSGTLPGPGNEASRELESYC

human glucagon receptor, sequence (P47871 26-477): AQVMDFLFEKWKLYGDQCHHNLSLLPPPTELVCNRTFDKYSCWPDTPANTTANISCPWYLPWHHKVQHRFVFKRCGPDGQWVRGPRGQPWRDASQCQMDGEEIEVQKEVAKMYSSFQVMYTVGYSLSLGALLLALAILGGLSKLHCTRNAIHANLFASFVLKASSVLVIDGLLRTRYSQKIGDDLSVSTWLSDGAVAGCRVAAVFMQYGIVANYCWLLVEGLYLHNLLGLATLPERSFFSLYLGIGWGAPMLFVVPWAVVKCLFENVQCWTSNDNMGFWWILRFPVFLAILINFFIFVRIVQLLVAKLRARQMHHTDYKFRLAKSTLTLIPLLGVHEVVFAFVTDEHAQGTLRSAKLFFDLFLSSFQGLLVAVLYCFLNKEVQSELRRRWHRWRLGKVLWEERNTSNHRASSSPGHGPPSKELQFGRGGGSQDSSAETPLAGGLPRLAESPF

Turning to H[Aib]HGTFTSDLSKLK([γGlu-γGlu-Palmitoyl])EEQRQKEFIEWLKAGGPPS[Aib]KPPPK-NH2 [SEQ ID NO: 8], the “EC50 hGLP-1R (cAMP formation)” value with human GLP-1 receptor was found to be 1.3 pM. Moreover, the “EC50 hGlucagon R (cAMP formation)” value with human glucagon receptor is 2 pM. Besides, in the test with human GIP receptor, the “EC50 hGIP R (cAMP formation)” value stood at 1.6 pM.

B1: SEQ ID NO: 9 (peptide)
peptide: H[Aib]HGTFTSDLSKLK([γGlu-γGlu-Palmitoyl])EEQRQKEFIEWLKA[dA]GPPS[Aib]KPPPK-NH2
modifications: N-terminus assumed
SMILES: CCCCCCCCCCCCCCCC(=O)N[C@@H](CCC(=O)N[C@@H](CCC(=O)NCCCC[C@H](NC(=O)[C@H](CC(C)C)NC(=O)[C@H](CCCCN)NC(=O)[C@H](CO)NC(=O)[C@H](CC(C)C)NC(=O)[C@H](CC(=O)O)NC(=O)[C@H](CO)NC(=O)[C@@H](NC(=O)[C@H](Cc1ccccc1)NC(=O)[C@@H](NC(=O)CNC(=O)[C@H](Cc1c[nH]cn1)NC(=O)C(C)(C)NC(=O)[C@@H](N)Cc1c[nH]cn1)[C@@H](C)O)[C@@H](C)O)C(=O)N[C@@H](CCC(=O)O)C(=O)N[C@@H](CCC(=O)O)C(=O)N[C@@H](CCC(N)=O)C(=O)N[C@@H](CCCNC(=N)N)C(=O)N[C@@H](CCC(N)=O)C(=O)N[C@@H](CCCCN)C(=O)N[C@@H](CCC(=O)O)C(=O)N[C@@H](Cc1ccccc1)C(=O)N[C@H](C(=O)N[C@@H](CCC(=O)O)C(=O)N[C@@H](Cc1c[nH]c2ccccc12)C(=O)N[C@@H](CC(C)C)C(=O)N[C@@H](CCCCN)C(=O)N[C@@H](C)C(=O)N[C@H](C)C(=O)NCC(=O)N1CCC[C@H]1C(=O)N1CCC[C@H]1C(=O)N[C@@H](CO)C(=O)NC(C)(C)C(=O)N[C@@H](CCCCN)C(=O)N1CCC[C@H]1C(=O)N1CCC[C@H]1C(=O)N1CCC[C@H]1C(=O)N[C@@H](CCCCN)C(N)=O)[C@@H](C)CC)C(=O)O)C(=O)O
Take B1: the “EC50 hGLP-1R (cAMP formation)” value with human GLP-1 receptor came to 1.6 pM. In addition, the “EC50 hGlucagon R (cAMP formation)” value with human glucagon receptor came to 2.9 pM. Also, the “EC50 hGIP R (cAMP formation)” value in the test with human GIP receptor came to 2.6 pM.

B2: SEQ ID NO: 13 (peptide)
peptide: H[Aib]HGTFTSDLSKLK([γGlu-γGlu-Palmitoyl])EEQRQ[Aib]EFIEWLKA[dA]GHPS[Aib]KPPPK-NH2
modifications: N-terminus assumed
SMILES: CCCCCCCCCCCCCCCC(=O)N[C@@H](CCC(=O)N[C@@H](CCC(=O)NCCCC[C@H](NC(=O)[C@H](CC(C)C)NC(=O)[C@H](CCCCN)NC(=O)[C@H](CO)NC(=O)[C@H](CC(C)C)NC(=O)[C@H](CC(=O)O)NC(=O)[C@H](CO)NC(=O)[C@@H](NC(=O)[C@H](Cc1ccccc1)NC(=O)[C@@H](NC(=O)CNC(=O)[C@H](Cc1c[nH]cn1)NC(=O)C(C)(C)NC(=O)[C@@H](N)Cc1c[nH]cn1)[C@@H](C)O)[C@@H](C)O)C(=O)N[C@@H](CCC(=O)O)C(=O)N[C@@H](CCC(=O)O)C(=O)N[C@@H](CCC(N)=O)C(=O)N[C@@H](CCCNC(=N)N)C(=O)N[C@@H](CCC(N)=O)C(=O)NC(C)(C)C(=O)N[C@@H](CCC(=O)O)C(=O)N[C@@H](Cc1ccccc1)C(=O)N[C@H](C(=O)N[C@@H](CCC(=O)O)C(=O)N[C@@H](Cc1c[nH]c2ccccc12)C(=O)N[C@@H](CC(C)C)C(=O)N[C@@H](CCCCN)C(=O)N[C@@H](C)C(=O)N[C@H](C)C(=O)NCC(=O)N[C@@H](Cc1c[nH]cn1)C(=O)N1CCC[C@H]1C(=O)N[C@@H](CO)C(=O)NC(C)(C)C(=O)N[C@@H](CCCCN)C(=O)N1CCC[C@H]1C(=O)N1CCC[C@H]1C(=O)N1CCC[C@H]1C(=O)N[C@@H](CCCCN)C(N)=O)[C@@H](C)CC)C(=O)O)C(=O)O
For the molecule B2, the “EC50 hGLP-1R (cAMP formation)” value with human GLP-1 receptor is 2.8 pM. For the same molecule, in the test with human glucagon receptor, the “EC50 hGlucagon R (cAMP formation)” value stood at 2.1 pM. Also, the “EC50 hGIP R (cAMP formation)” value with human GIP receptor is 2.7 pM.

B3: SEQ ID NO: 10 (peptide)
peptide: H[Aib]HGTFTSDLSKLK([γGlu-γGlu-Palmitoyl])EEQRQ[Aib]EFIEWLKAGGPPS[Aib]KPPPK-NH2
modifications: N-terminus assumed
SMILES: CCCCCCCCCCCCCCCC(=O)N[C@@H](CCC(=O)N[C@@H](CCC(=O)NCCCC[C@H](NC(=O)[C@H](CC(C)C)NC(=O)[C@H](CCCCN)NC(=O)[C@H](CO)NC(=O)[C@H](CC(C)C)NC(=O)[C@H](CC(=O)O)NC(=O)[C@H](CO)NC(=O)[C@@H](NC(=O)[C@H](Cc1ccccc1)NC(=O)[C@@H](NC(=O)CNC(=O)[C@H](Cc1c[nH]cn1)NC(=O)C(C)(C)NC(=O)[C@@H](N)Cc1c[nH]cn1)[C@@H](C)O)[C@@H](C)O)C(=O)N[C@@H](CCC(=O)O)C(=O)N[C@@H](CCC(=O)O)C(=O)N[C@@H](CCC(N)=O)C(=O)N[C@@H](CCCNC(=N)N)C(=O)N[C@@H](CCC(N)=O)C(=O)NC(C)(C)C(=O)N[C@@H](CCC(=O)O)C(=O)N[C@@H](Cc1ccccc1)C(=O)N[C@H](C(=O)N[C@@H](CCC(=O)O)C(=O)N[C@@H](Cc1c[nH]c2ccccc12)C(=O)N[C@@H](CC(C)C)C(=O)N[C@@H](CCCCN)C(=O)N[C@@H](C)C(=O)NCC(=O)NCC(=O)N1CCC[C@H]1C(=O)N1CCC[C@H]1C(=O)N[C@@H](CO)C(=O)NC(C)(C)C(=O)N[C@@H](CCCCN)C(=O)N1CCC[C@H]1C(=O)N1CCC[C@H]1C(=O)N1CCC[C@H]1C(=O)N[C@@H](CCCCN)C(N)=O)[C@@H](C)CC)C(=O)O)C(=O)O
With B3, in the test with human GLP-1 receptor, the “EC50 hGLP-1R (cAMP formation)” value is 2.3 pM. Moreover, in the test with human glucagon receptor, the “EC50 hGlucagon R (cAMP formation)” value was found to be 1.6 pM. In addition, the “EC50 hGIP R (cAMP formation)” value with human GIP receptor amounted to 1.1 pM.
In the same order, the values of H[Aib]HGTFTSDLSKLK([γGlu-γGlu-Palmitoyl])EEQRQ[Aib]EFIEWLKAGGHPS[Aib]KPPPK-NH2 [SEQ ID NO: 12] are 1.8 pM, 2 pM and 1.9 pM.

B4: SEQ ID NO: 7 (peptide)
peptide: H[Aib]HGTFTSDLSKLK([γGlu-γGlu-Palmitoyl])EEQRQKEFIEWLKA[dA]GHPS[Aib]KPPPK-NH2
modifications: N-terminus assumed
SMILES: CCCCCCCCCCCCCCCC(=O)N[C@@H](CCC(=O)N[C@@H](CCC(=O)NCCCC[C@H](NC(=O)[C@H](CC(C)C)NC(=O)[C@H](CCCCN)NC(=O)[C@H](CO)NC(=O)[C@H](CC(C)C)NC(=O)[C@H](CC(=O)O)NC(=O)[C@H](CO)NC(=O)[C@@H](NC(=O)[C@H](Cc1ccccc1)NC(=O)[C@@H](NC(=O)CNC(=O)[C@H](Cc1c[nH]cn1)NC(=O)C(C)(C)NC(=O)[C@@H](N)Cc1c[nH]cn1)[C@@H](C)O)[C@@H](C)O)C(=O)N[C@@H](CCC(=O)O)C(=O)N[C@@H](CCC(=O)O)C(=O)N[C@@H](CCC(N)=O)C(=O)N[C@@H](CCCNC(=N)N)C(=O)N[C@@H](CCC(N)=O)C(=O)N[C@@H](CCCCN)C(=O)N[C@@H](CCC(=O)O)C(=O)N[C@@H](Cc1ccccc1)C(=O)N[C@H](C(=O)N[C@@H](CCC(=O)O)C(=O)N[C@@H](Cc1c[nH]c2ccccc12)C(=O)N[C@@H](CC(C)C)C(=O)N[C@@H](CCCCN)C(=O)N[C@@H](C)C(=O)N[C@H](C)C(=O)NCC(=O)N[C@@H](Cc1c[nH]cn1)C(=O)N1CCC[C@H]1C(=O)N[C@@H](CO)C(=O)NC(C)(C)C(=O)N[C@@H](CCCCN)C(=O)N1CCC[C@H]1C(=O)N1CCC[C@H]1C(=O)N1CCC[C@H]1C(=O)N[C@@H](CCCCN)C(N)=O)[C@@H](C)CC)C(=O)O)C(=O)O
Consider B4, for which the “EC50 hGLP-1R (cAMP formation)” value with human GLP-1 receptor amounted to 1.7 pM. For the same molecule, the “EC50 hGlucagon R (cAMP formation)” value in the test with human glucagon receptor was 3.2 pM. Also, in the test with human GIP receptor, the “EC50 hGIP R (cAMP formation)” value came out at 2.6 pM.

B5: SEQ ID NO: 11 (peptide)
peptide: H[Aib]HGTFTSDLSKLK([γGlu-γGlu-Palmitoyl])EEQRQ[Aib]EFIEWLKA[dA]GPPS[Aib]KPPPK-NH2
modifications: N-terminus assumed
SMILES: CCCCCCCCCCCCCCCC(=O)N[C@@H](CCC(=O)N[C@@H](CCC(=O)NCCCC[C@H](NC(=O)[C@H](CC(C)C)NC(=O)[C@H](CCCCN)NC(=O)[C@H](CO)NC(=O)[C@H](CC(C)C)NC(=O)[C@H](CC(=O)O)NC(=O)[C@H](CO)NC(=O)[C@@H](NC(=O)[C@H](Cc1ccccc1)NC(=O)[C@@H](NC(=O)CNC(=O)[C@H](Cc1c[nH]cn1)NC(=O)C(C)(C)NC(=O)[C@@H](N)Cc1c[nH]cn1)[C@@H](C)O)[C@@H](C)O)C(=O)N[C@@H](CCC(=O)O)C(=O)N[C@@H](CCC(=O)O)C(=O)N[C@@H](CCC(N)=O)C(=O)N[C@@H](CCCNC(=N)N)C(=O)N[C@@H](CCC(N)=O)C(=O)NC(C)(C)C(=O)N[C@@H](CCC(=O)O)C(=O)N[C@@H](Cc1ccccc1)C(=O)N[C@H](C(=O)N[C@@H](CCC(=O)O)C(=O)N[C@@H](Cc1c[nH]c2ccccc12)C(=O)N[C@@H](CC(C)C)C(=O)N[C@@H](CCCCN)C(=O)N[C@@H](C)C(=O)N[C@H](C)C(=O)NCC(=O)N1CCC[C@H]1C(=O)N1CCC[C@H]1C(=O)N[C@@H](CO)C(=O)NC(C)(C)C(=O)N[C@@H](CCCCN)C(=O)N1CCC[C@H]1C(=O)N1CCC[C@H]1C(=O)N1CCC[C@H]1C(=O)N[C@@H](CCCCN)C(N)=O)[C@@H](C)CC)C(=O)O)C(=O)O
In the case of B5, the “EC50 hGLP-1R (cAMP formation)” value in the test with human GLP-1 receptor turned out to be 2.9 pM. Moreover, the “EC50 hGlucagon R (cAMP formation)” value in the test with human glucagon receptor amounted to 2.1 pM. In the test with human GIP receptor, the “EC50 hGIP R (cAMP formation)” value is 1.5 pM.
